From patent US20150166606A1 (RA PHARMACEUTICALS, published 2015)
Read-outs that look alike come from different tables or passages of the source. Numbered stars: 1 amine (or outer) side, 2 acyl side, 3 side chain; on linkers, the order of the positions; unused ones are H or OH. Bridge positions count the residues as written; N and C are the ends. Square brackets hold non-standard residues; d marks the D form. Ends that are not written are not given here. * marks the point of attachment. mXylyl = xylyl linker from dibromoxylene joining the two cysteines; Trp(7-aza) = N[C@@H](Cc1c[nH]c2ncccc12)C(=O)O; des‑NH2 = missing amino-terminal amine group; Gly(octyl) = CCCCCCCC[C@H](N)C(=O)O; Gly(cPent) = N[C@H](C(=O)O)C1CCCC1; pXylylene = c1cc(C[*:2])ccc1C[*:1]; Gly(cPr) = N[C@H](C(=O)O)C1CC1; dPhg = N[C@@H](C(=O)O)c1ccccc1; Chg = N[C@H](C(=O)O)C1CCCCC1; Phg = N[C@H](C(=O)O)c1ccccc1; Tle = CC(C)(C)[C@H](N)C(=O)O; Tranexamic = tranexamic acid; NMeV = CN[C@H](C(=O)O)C(C)C; oXylyl = ortho-xylyl linker; NMeC = CN[C@@H](CS)C(=O)O; NMeS = CN[C@@H](CO)C(=O)O; azaTrp = not defined here; Heptanoyl = CCCCCCC(=O)*; Nva = CCC[C@H](N)C(=O)O; Thp = NC1(C(=O)O)CCOCC1; Ac4c = NC1(C(=O)O)CCC1; Ac3c = NC1(C(=O)O)CC1; Aib = CC(C)(N)C(=O)O; Mpa = O=C(O)CCS

B1: R2068 (peptide)
peptide: Heptanoyl-CA[NMeS][Phg]CR[Tle]-NH2
modifications: linker 1-5 via mXylyl; not fully specified (residue 2); printed as [mXylyl(1,5)]Heptanoyl-C-a-nMeS-Phg-C-R-Tbg-NH2
B2: R2069 (peptide)
peptide: Heptanoyl-CA[NMeS][dPhg]CR[Tle]-NH2
modifications: linker 1-5 via mXylyl; not fully specified (residue 2); printed as [mXylyl(1,5)]Heptanoyl-C-a-nMeS-(D)Phg-C-R-Tbg-NH2
B3: R2080 (peptide)
peptide: [Mpa][code a]S[Phg]C[azaTrp][Tle]-NH2
modifications: linker 1-5 via mXylyl; reading uncertain; also: printed as [mXylyl(1,5)](des-NH2)C-a-S-Phg-C-azaTrp-Tbg-NH2
B4: R2073 (peptide)
peptide: {des‑NH2}-C[Gly(octyl)]S[Phg]CR[Tle]-NH2
modifications: linker 1-5 via mXylyl; not fully specified (residue 1); printed as [mXylyl(1,5)](des-NH2)C-OctG-S-Phg-CR-Tbg-NH2
B5: R2081 (peptide)
peptide: {des‑NH2}-C[Tranexamic][dPhg]CR[Tle]-NH2
modifications: linker 1-4 via mXylyl (inferred); not fully specified; printed as [mXylyl(1,5)](des-NH2)C-Tranexamic-(D)Phg-CR-Tbg-NH2
B6: R2075 (peptide)
peptide: {des‑NH2}-CAA[Phg]CR[Tle]-NH2
modifications: linker 1-5 via mXylyl; not fully specified (residue 1); printed as [mXylyl(1,5)](des-NH2)C-AA-Phg-CR-Tbg-NH2
B7: R2072 (peptide)
peptide: {des‑NH2}-CAAICRV-NH2
modifications: linker 1-5 via mXylyl; not fully specified (residue 1); printed as [mXylyl(1,5)](des-NH2)C-AAICRV-NH2
B8: R2076 (peptide)
peptide: {des‑NH2}-CGA[Phg]CR[Tle]-NH2
modifications: linker 1-5 via mXylyl; not fully specified (residue 1); printed as [mXylyl(1,5)](des-NH2)C-GA-Phg-CR-Tbg-NH2
B9: R2070 (peptide)
peptide: Ac-CAS[Phg]CR[Gly(cPr)]-NH2
modifications: linker 1-5 via mXylyl; not fully specified (residue 2); printed as [mXylyl(1,5)]Ac-C-a-S-Phg-CR-Cppg-NH2
B10: R2090 (peptide)
peptide: {des‑NH2}-C[Tranexamic][Phg]CR[Tle]-NH2
modifications: linker 1-4 via mXylyl (inferred); not fully specified; printed as [mXylyl(1,5)](des-NH2)C-Tranexamic-Phg-CR-Tbg-NH2
B11: R2071 (peptide)
peptide: Ac-CAS[Phg]CR[Chg]-NH2
modifications: linker 1-5 via mXylyl; not fully specified (residue 2); printed as [mXylyl(1,5)]Ac-C-a-S-Phg-CR-Chg-NH2
B12: R2084 (peptide)
peptide: {des‑NH2}-C[Phg]CR[Tle]-NH2
modifications: linker 1-3 via pXylylene; not fully specified (residue 1); printed as [pXylyl(1,5)](des-NH2)C-Phg-CR-Tbg-NH2
B13: R2067 (peptide)
peptide: Heptanoyl-CAS[Phg]CR[Tle]-NH2
modifications: linker 1-5 via mXylyl; not fully specified (residue 2); printed as [mXylyl(1,5)]Heptanoyl-C-a-S-Phg-C-R-Tbg-NH2
B14: R2066 (peptide)
peptide: Heptanoyl-CAS[dPhg]CR[Tle]-NH2
modifications: linker 1-5 via mXylyl; not fully specified (residue 2); printed as [mXylyl(1,5)]Heptanoyl-C-a-S-(D)Phg-C-R-Tbg-NH2
B15: R2083 (peptide)
peptide: {des‑NH2}-C[Phg]CR[Tle]-NH2
modifications: linker 1-3 via oXylyl; not fully specified (residue 1); printed as [oXylyl(1,5)](des-NH2)C-Phg-CR-Tbg-NH2

How the values were obtained:
[1] = target: T1, Activated human plasma kallikrein (Enzyme Research Laboratories, HPKa 1303) (human, UniProt P03952 20-638); assay: cell-based or functional assay
[2] = target: T1, Activated human plasma kallikrein …; assay: cell-based or functional assay; remark: listed apart in the source

T1 sequence (P03952 20-638 limits assumed): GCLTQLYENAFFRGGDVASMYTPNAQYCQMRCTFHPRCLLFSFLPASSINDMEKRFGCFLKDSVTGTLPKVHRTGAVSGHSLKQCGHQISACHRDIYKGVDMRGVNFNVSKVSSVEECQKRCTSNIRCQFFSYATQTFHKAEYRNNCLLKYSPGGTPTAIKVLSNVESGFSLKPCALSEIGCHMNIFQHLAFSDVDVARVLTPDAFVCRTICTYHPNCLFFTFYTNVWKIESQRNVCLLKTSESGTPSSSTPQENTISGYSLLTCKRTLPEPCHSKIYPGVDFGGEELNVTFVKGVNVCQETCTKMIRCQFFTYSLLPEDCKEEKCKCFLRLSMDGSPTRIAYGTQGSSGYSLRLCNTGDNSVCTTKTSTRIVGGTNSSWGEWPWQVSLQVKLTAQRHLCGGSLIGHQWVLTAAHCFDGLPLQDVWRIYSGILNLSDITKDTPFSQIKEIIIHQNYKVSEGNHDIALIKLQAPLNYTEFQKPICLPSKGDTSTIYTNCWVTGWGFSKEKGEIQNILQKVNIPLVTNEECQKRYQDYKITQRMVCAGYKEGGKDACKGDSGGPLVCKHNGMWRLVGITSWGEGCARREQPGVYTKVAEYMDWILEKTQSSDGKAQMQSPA

Binder | Avg. IC50 [1] [nM] | Avg. IC50 [2] [nM]
{des‑NH2}-C[Aib]A[dPhg]CR[Tle]LRYSE-NH2 (linker 1-5 via mXylyl) [R2098] | 22.4 | –
B1 | 26.8 | –
B2 | 903 | –
B3 | 13200 | –
{des‑NH2}-C[Ac4c]A[dPhg]CR[Tle]-NH2 (linker 1-5 via mXylyl) [R2096] | 748 | –
{des‑NH2}-C[Ac4c]A[Phg]CR[Tle]-NH2 (linker 1-5 via mXylyl) [R2097] | 2 | –
B4 | 18.6 | –
MCESI[NMeC]RV-NH2 (linker 2-6 via mXylyl) [R2101] | 12700 | –
Ac-MCESICRV-NH2 (linker 2-6 via mXylyl) [R2008] | 10.2 | –
B5 | > 10000 | –
B6 | 2.6 | –
B7 | 13 | –
[Mpa][code a]S[Chg]CR[Tle]-NH2 (linker 1-5 via mXylyl) [R2082] | 25.8 | –
B8 | 11.4 | –
[Nva]CESICRV-NH2 (linker 2-6 via mXylyl) [R2009] | 8.6 | –
{des‑NH2}-C[Aib]A[Phg]CR[Tle]LRYSE-NH2 (linker 1-5 via mXylyl) [R2099] | 0.1 | –
{des‑NH2}-C[Aib]A[Chg]CR[Tle]-NH2 (linker 1-5 via mXylyl) [R2091] | 3.2 | –
{des‑NH2}-C[Thp]A[dPhg]CR[Tle]-NH2 (linker 1-5 via mXylyl) [R2094] | 46.9 | –
{des‑NH2}-C[Thp]A[Phg]CR[Tle]-NH2 (linker 1-5 via mXylyl) [R2095] | 1.6 | –
MCEYICRV-NH2 (linker 2-6 via mXylyl) [R2089] | 61.9 | –

Binder | Avg. IC50 [1] [nM] | Avg. IC50 [2] [nM]
MCESICR[NMeV]-NH2 (linker 2-6 via mXylyl) [R2074] | 11600 | –
B9 | 118 | –
B10 | 1750 | –
B11 | 1920 | –
B12 | 1800 | –
{des‑NH2}-C[Thp]A[Chg]C[Trp(7-aza)][Tle]-NH2 (linker 1-5 via mXylyl) [R2147] | – | > 2190
{des‑NH2}-C[Ac3c]A[Phg]CR[Tle]-NH2 (linker 1-5 via mXylyl) [R2093] | 10.3 | –
{des‑NH2}-C[Thp]A[Chg]CR[Tle]-NH2 (linker 1-5 via mXylyl) [R2100] | 1.5 | –
B13 | 19.1 | –
CESICRV-NH2 (linker 1-5 via mXylyl) [R2085] | 21.9 | –
MCES[Gly(cPent)]CRV-NH2 (linker 2-6 via mXylyl) [R2077] | 19.7 | –
{des‑NH2}-C[Aib]A[Phg]CR[Tle]-NH2 (linker 1-5 via mXylyl) [R2078] | 2.8 | –
{des‑NH2}-C[Ac3c]A[dPhg]CR[Tle]-NH2 (linker 1-5 via mXylyl) [R2092] | 3960 | –
MCESNCRV-NH2 (linker 2-6 via mXylyl) [R2088] | 2040 | –
B14 | 4370 | –
MCESICRE-NH2 (linker 2-6 via mXylyl) [R2087] | > 16600 | –
[Mpa][code a]A[Phg]CR[Tle]-NH2 (linker 1-5 via mXylyl) [R2079] | 17.8 | –
MCESICRELRYSE-NH2 (linker 2-6 via mXylyl) [R2086] | 8930 | –
B15 | > 8900 | –
